These results are taken from the DeepSol protein solubility set.

This data set is described as follows: soluble on expression in E. coli; label from the status in PepcDB or PDB records.
Consider “MGSSHHHHHHSSGLVPRGSHMSQSTYSLEQLADFLKVEFQGNGATLLSGVEEIEEAKTAHITFLDNEKYAKHLKSSEAGAIIISRTQFQKYRDLNKNFLITSESPSLVFQKCLELFITPVDSGFPGIHPTAVIHPTAIIEDHVCIEPYAVVCQHAHVGSACHIGSGSVIGAYSTVGEHSYIHPRVVIRERVSIGKRVIIQPGAVIGSCGFGYVTSAFGQHKHLKHLGKVIIEDDVEIGANTTIDRGRFKHSVVREGSKIDNLVQIAHQVEVGQHSMIVAQAGIAGSTKIGNHVIIGGQAGITGHICIADHVIMMAQTGVTKSITSPGIYGGAPARPYQEIHRQVAKVRNLPRLEERIAALEKLVQKLEALSEQH”, for which the “soluble on expression in E. coli” value is recorded as “soluble”.
Regarding “MKLTDSVLRSFRVAKVFRENSDKINCFDFSSNGETVISSSDDDSIVLYDCQEGKPKRTLYSKKYGVDLIRYTHAANTVVYSSNKIDDTIRYLSLHDNKYIRYFPGHNKRVVALSMSPVDDTFISGSLDKTIRLWDLRSPNCQGLMHLQGKPVCSFDPEGLIFAAGVNSEMVKLYDLRSFDKGPFATFKLQYERTCEWTGLKFSNDGKLILVSTNGGTLRVLDAFKGAVLHSFGGYNNSKGVILEAPFTPDSQFIMIGSEDGKIHVWNAESGMKVALLDGKHTGPVTCLQFNPKFMTFASACSNMAFWLPTIDD”, the “soluble on expression in E. coli” value is recorded as “not soluble”.
Turning to “MSLEISNRLKSISEVMDRCEIAADIGTDHAYLPIYLIKNNLCKRFIASDVNAGPLKKAINNINKYKLEDKIECRLGSGLNVLKLEEVDVVVIAGMGGNLIRDIIEERLDIFKKLKYAVLQPVQNPEILREYLIKRGFNIIEEQLCIDESKYYEIIKVCYDSKIEDKDDVYYEIGDKLIDMKHPLLKEYINYKIRKYDKIYKNISEESLNALSRKNELSIKIRKLKELLSCLEGHHHHHH”, the “soluble on expression in E. coli” value was “soluble”.
In the case of “MKQTPPLISFITICYNGLDDTCMLIESLRDTISSVSYEIIVVDNASRQDEASLIQERYPFVRTLRSEKNLGFSGGNNLGIQIAQGKYLFLINNDTYLTEDGLPALIERLESDPRIGAVSPKIRFAFPPQSIQFAGYTKLSRYTMRNKALGMGCPDDGTFDTPRPSAYLHGAALMLKREVIWKAGLMPEIYFLYYEELDWCTSMTRAGYQLWYEPRCTIFHKESQSTGRQSPLRTFYMMRNRMLYAWRNLPGMERCLAIAYQMLIVAPKDSLCFVLKGEPKLAKAVWHGVKGFWKLCLEHHHHHH” it was “soluble”; in that of “MGSDKIHHHHHHMKIQNTEWGYIEWKHTYDENNPKQAMNIYIAVTMPGKKHFNHVHYGQEQMIYILEGEGLYIINGVWKPFYQGMIFYIESGSTHETINTGDREIKELIVSNNVDDVGESEIIDINPNNYLKKTLINYSESTLNLYAAVESIRGQFIDPFKIPLIIYDDSWNIVLKNPYFPLFCFEKCNPMKFPQNCDCMNQKSSNQFVCEYGITIYNIPILYKSNSIGVIRGGYVLLSDLNLDTEHNNLYDIPEGAARSIKRLLKQISKNIINFCSFNDIRKDLQEKEKTIARTYHYGEQLEMNLKVAQDMVTNLRINHHFLFNTLNSMASIALDDGSYDLYSAIIDLSRMFRYTMRSDLRFVELESEILYIKNYLNLQKLRYGDALKVKYLIPEKLYNLSVPFNFIQPIVENAFTHGFRDIDTEKRIEIIARLDSQYAIIEIHNNGTILDGNNIDKIKAGIRSNNGHGLSLIYTKFTSAYGNNFDMDIKSSDNEGTYIMIKIPIENYKEYV”, “not soluble”; in that of “MGSDKIHHHHHHMEFYERAKKYEYKFTDTEDMIIEYMRKNKEEIVKLSIQSLADKFFTVPNTIVRLCKKMEYDGFSQLKNNLKEELKNENKEPKNGFESDIKKTLELIDYEKINKVADIIQKSRSIIVYGIGQNIPLCEILVKEIRGGHDNITYYSQRHEVLHDIGKLGEQDMFFALSLSGETKEVIEAAKTAVNKGCKVVALTHICENQLQQIADISLYCYSTIKQVNGYNISDKVPIMMIMRAIIEQYWLR”, “not soluble”.
Next, “GPGSMEEQDQRKPNGGNNGLPVPPSTTETGQGPLQDILGRTPNCQYVKKRLLGQGSFGSAWRVEESATGNVFAAKVMDLNNMSEKDRGFVTNEVKCLSRCCNPHVVRCENAIEREGQLLIVMEYADGGDLYKQIKARVREMKFFREHEVVFIFLQLCLALDHIHSNKMMHRDLKTANILLTTTGLVKLGDFGFSRQYEDSLSNAVGSTFCGTPYYLSPELWHRQPYSKKSEMWALGVVLYEVMALRRPFTGKNMDELITNICHGRCSDLPSSYSASLRDVCNRLLSVDPNTRPTIHELFHEPFIRSNLETLKRSVEKHNRIPADVREAIARCITQSLNTEEPPAHLEEPEPLIGTVKRHTALRGWQKCLLSFDEKQISIRDPSGVDPEEVVPVATLTSVCPIDVMMAGEEFVFAMKNQAGKAFWFMAPSQRAYEQWLTTLQEAAP”: “soluble”; “MPMLDMIVSRVITLLQGRESRSLRVTQAELAAGLSKTVYLHNAQLILPLPDLAFIQSLVAYDHHHPAVSTVLEAWAYGVRLHLQIHQQLLTALPLRELRRLPVTLTDHMSTPVKLAAAAGLSYASVIHWHDCWVLLEKQTLITALAREVMERQNIKLIWQE”: “not soluble”.
Turning to “GSKKRQRFVDKNGRCNVQHGNLGSERAETLMFSEHAVISMRDGKLTLMFRVGNLRNSHMVEAQIRCKLLKSRQTPEGEFLPLDQLELDVGFSTGADQLFLVSPLTICHVIDAKSPFYDLSQRSMQTEQFEVVVILEGIVETTGMTCQARTSYTEDEVLWGHRFFPVISLEEGFFKVDYSQFHATFEVPTPPYSVKEQEEMLLMSSPL”, the “soluble on expression in E. coli” value was “soluble”.
As to “MVAIVDVGITKFGKRKENIFDLVKEVTEKLLKYDIDYVIVSNSYSGEFNQTSGLSSLITTYLNLDYVPSLRVDNTSGSGGSAILVAKSLLESKEANTVLVVGVEKMSEKKTREVTKIISSLLPFEERIASLPSLASISAIEYMRKFNAPRESIAQVAVKNHYNGSLNPFAHIQKRVTLEEVLNSPVISEPLRLYEYTPISDGAAAVVMVRNEDALSYTSKPVYIKGIGSSNYTAYVSEKEDFVTLPAVVEASRKAFKKAKVERIDFAELHDMATILEIIQSEDIGLFKKGEGWKAVMEGLTSLDGEIPINPSGGLNSKGHPIGASGVAQAVEAFSQIRNEAGNRQVKNARVGLSLSMAGYGNSATVIIYGDEP”, the “soluble on expression in E. coli” value was “soluble”.
For the sequence “MAHHHHHHMGQSNGAALAKDTIASEQFLKYQEARHRIVHRAFVKCVVPSSKGKDDGYDLTPEERVCVEEFAILYAGFAKKEFLHFSSLYEQYQRDQYEKMRLEVMQQQARKDIQH”, the “soluble on expression in E. coli” value is “not soluble”.
In the case of “MTALAVAPASAACAIAAEAIHCAAMDTASAADEALMLAYGAEGDMDAFDALYARHRAGLYRYILRSARNAAQADDIFQETWSRVIDARARYRPQARFTTWLLQIAHNLLVDAHRRQPAPVAPEQAEAALASVPAAEHEQPEARLSEFQQRRRLQLAIERLPDEQRLAMLLRLEHDLDVEEIAQVTGVSRETVKSRLRYATRRIREELSSESAPRSP” it was “not soluble”.
In the case of “MGHHHHHHSHMYLRHDKPPYTYLAMIALVIQAAPSRRLKLAQIIRQVQAVFPFFREDYEGWKDSIRHNLSSNRCFRKVPKDPAKPQAKGNFWAVDVSLIPAEALRLQNTALCRRWQNGG” it was “soluble”; in that of “MKKVGVVIPIYNVEKYLKECLDSVINQTYTNLEIILVNDGSTDENSLNIAKEYTLKDKRIILFDKKNGGLSSARNVGIEYFSGEYETQYIEKENELNVFKIIGDNPQNIYKIYKYKNALASDKLEISKIDYIIFLDSDNYWELNCIEECVVRMQNVDVLWFDHACIYDDGIEDKGQKTRMNVFNFTQECTITPRDYAKQAIKVGSRDISFSWGGMIDFSFLKQLKLKFINKIINEDIHFGMVLFASADSIYILPKRLYLCRLRANSISNHDKKVTKANVSEYFKDLYEFFGENAKEAKNYLKAASRMITALELIEFFKDQKNENSQAIKEAFLPFYVKKALMIKKFKKDPLNLKEKLPIIKPFIQTKIPYDLWKIWQKIKGILDKINFAK”, “soluble”; in that of “MGSDKIHHHHHHMLKLDKIQANKIVEKLMADIPYNINIMDERGKIIASGDSARIGERHRGAERAINERKNIEIYKDTSLEKKGTNEPIILNNHILGVVGISGEPDEVRKFTKLVRSIVLLLTEELNTQQEREKKKKQKNQFIQHLMHVDSSYSEALKLEALELYNLQLDDQNHCVLTKDKRLLSSYYPGHEIFEWENCYLVITSEPPQITKPVTEYLVISSEKATIQQMVQEAQNTYLLLSFLQLEKAKFYQAEDFFIQGIFNFPFHIELDFFETIQTIYDEYYETVIFFANHNLNINETSQVLHIHRNTLNYRLKRIHELTGMDPKVWQDFWKLFYYFAYCFKERFEK”, “not soluble”.
